Laboratory results published in publication PMC10499821 (Nature Communications, 2023).
Where no end group is shown, it is not given here. The star is where a group is joined. FITC = O=C1OC2(c3ccc(O)cc3Oc3cc(O)ccc32)c2ccc(NC(=S)*)cc21

B1: DYRK1B_(395–410) (peptide)
peptide: PGHSPADYLRFQDLVL
notes: also called DYRK1B peptide; DYRK1B_(394–409)

Assays:
Nsp16 = Nsp16 (SARS-CoV-2, UniProt P0DTD1 6799-7096); assay: fluorescence polarisation; settings: both partners purified
Nsp9 = Nsp9 (SARS-CoV-2, UniProt P0DTD1); assay: fluorescence polarisation; settings: both partners purified

| Binder | Kd (Nsp16) | binding result (Nsp9) | also measured |
| --- | --- | --- | --- |
| B1 | 56 µM | – | – |
| {FITC}-AEGIDIGEMPSYDLVL [FITC-NKRF_(8–23)] | – | binds | – |
| MNIQEQGFPLDLGAS (also called Axin-1 peptide) [AXIN1_(1–15)] | – | binds | – |
| AEGIDIGEMPSYDLVL (also called NKRF peptide) [NKRF_(8–23)] | – | binds | – |
| PAHPDGFALGRAPLA (also called LMTK3 peptide) [LMTK3_(22–36)] | – | binds | – |
| FQGAWLGCPEPWEPLL (peptide, UniProt Q99466 1605-1620, looked up, also called NOTCH4 peptide) [NOTCH4_(1605–1620)] | – | – | Kd (Nsp9): ~130 µM |
| NQDMSAWFNLFADLDP (also called ICA1L peptide) [ICA1L_(450–465)] | 30 µM | – | – |
| EDPLDSYLNFQALISP (also called FLJ43738 peptide) [FLJ43738_(76–91)] | 62 µM | – | – |
